Measurements as given in paper PMC10578477, “Biochemical and genetic dissection of the RNA-binding surface of the FinO domain of Escherichia coli ProQ”.

Experiments:
[1] = molecular target: T1, ProQ NTD WT (FinO domain) (Escherichia coli, UniProt P45577 1-130); assay: EMSA; settings: EMSA: 25 mM Tris pH 7.5, 150 mM NaCl, 5% glycerol, 1 mM MgCl2, 1 nM 32P-RNA, 30 min RT; microplates pretreated with 0.0025% BSA; 6% gel in 0.5x TBE at 4 C
T1 sequence: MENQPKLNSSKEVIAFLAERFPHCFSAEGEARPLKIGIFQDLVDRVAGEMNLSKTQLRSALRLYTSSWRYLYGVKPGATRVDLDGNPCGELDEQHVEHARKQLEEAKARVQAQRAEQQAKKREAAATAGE

[2] = molecular target: T1, ProQ NTD WT (FinO domain); assay: EMSA; EMSA: 25 mM Tris pH 7.5, 150 mM NaCl, 5% glycerol, 1 mM MgCl2, 1 nM 32P-RNA, 30 min RT; microplates pretreated with 0.0025% BSA; 6% gel in 0.5x TBE at 4 C; settings: protein: recombinant, tags: His6-TEV removed, N-terminal Ser remains, label: 5'-32P
[3] = molecular target: T1, ProQ NTD WT (FinO domain); assay: EMSA; range for five RNAs; EMSA: 25 mM Tris pH 7.5, 150 mM NaCl, 5% glycerol, 1 mM MgCl2, 1 nM 32P-RNA, 30 min RT; microplates pretreated with 0.0025% BSA; 6% gel in 0.5x TBE at 4 C; settings: protein: recombinant; tags: His6-TEV removed, N-terminal Ser remains; label: 5'-32P; terminator hairpin, 8 U 3' tail

For RybB, which Kd [1] is on record?
The Kd was 26 nM.

With gapA-3' as the molecule, how does the Kd [1] read?
Its Kd is 14 nM.

B1: cspE-mini-3'-6U (structured_RNA)
RNA: GGAAUUCGGAAGGCGCUUAAUCAGCGCCUUUUUU
For B1, which binding signal ([2]; hairpin, 6 U tail (2 predicted single-stranded)) is on record?
Its binding signal is ~2.5 fold weaker Kd than cspE-mini.

B2: cspE-3' (structured_RNA)
RNA: GUAAGAUACGUCAGCAAGAAUUCAAAACCCGCUUAAUCAGCGGGUUUUUUUU
With B2 as the molecule, how does the Kd [3] read?
Its Kd is roughly 6.33 nM.

B3: cspE-mini (structured_RNA)
RNA: GGAAUUCGGAAGGCGCUUAAUCAGCGCCUUUUUUUU
For B3, which binding signal ([2]; hairpin with 5' and 3' single-stranded regions) is on record?
The binding signal was ~1 fold weaker Kd than cspE-3'.
